For test [1], the target named is T1, soluble HLA-B*4001 (human).
T1 construct: Member of the panel of 53 single-specificity sHLA
Description: FP screen of 53 sHLA.

Test [2] deals with T2, soluble HLA-B*2705 (sHLA-B*2705) (human).
T2 construct: Recombinant soluble class I with endogenous peptides, made as m1; negative control
Description: FP screen.

Test [3] addresses T3, soluble HLA-B*4402 (human).
T3 construct: Member of the panel of 53 single-specificity sHLA
The test is described as follows: FP screen.

Test [4] concerns the target T4, soluble HLA-A*6801 (sHLA-A*6801) (human).
T4 construct: Recombinant soluble class I with endogenous peptides, made as m1
Description: FP screen.

The target of test [5] is T5, soluble HLA-A*2301 (human).
T5 construct: Member of the panel of 53 single-specificity sHLA
Description: FP screen.

Test [6] concerns the target T6, soluble HLA-B*1512 (human).
T6 construct: Member of the panel of 53 single-specificity sHLA
Description: FP screen.

The target of test [7] is T7, soluble HLA-A*2402 (human).
T7 construct: Member of the panel of 53 single-specificity sHLA
The test is described as follows: FP screen.

Test [8] deals with T8, soluble HLA-A*6601 (human).
T8 construct: Member of the panel of 53 single-specificity sHLA
The test is described as follows: FP screen.

Test [9] addresses T9, soluble HLA-A*3002 (human).
T9 construct: Member of the panel of 53 single-specificity sHLA
The test is described as follows: FP screen.

The target of test [10] is T10, soluble HLA-A*2601 (human).
T10 construct: Member of the panel of 53 single-specificity sHLA
Description: FP screen.

Test [11] deals with T11, soluble HLA-A*1102 (sHLA-A*1102) (human, UniProt P04439 25-308; P61769 21-119).
T11 construct: Recombinant soluble class I with endogenous peptides, made as m1
The test is described as follows: FP screen.

Test [12] deals with T12, soluble HLA-A*3402 (human).
T12 construct: Member of the panel of 53 single-specificity sHLA
Description: FP screen.

In test [13] the target is T13, soluble HLA-A*4301 (sHLA-A*4301) (human).
T13 construct: Recombinant soluble class I with endogenous peptides, made as m1
The test is described as follows: FP screen.

Test [14] addresses T14, soluble HLA-A*0301 (human).
T14 construct: Member of the panel of 53 single-specificity sHLA
Description: FP screen.

The target in test [15] is T15, soluble HLA-A*6901 (sHLA-A*6901) (human).
T15 construct: Recombinant soluble class I with endogenous peptides, made as m1
The test is described as follows: FP screen.

Test [16] has as its target T16, soluble HLA-B*1302 (human).
T16 construct: Member of the panel of 53 single-specificity sHLA
Description: FP screen.

The target of test [17] is soluble HLA-A*0201 (sHLA-A*0201) (human). The test is described as follows: FP screen.
For test [18], the target named is T17, soluble HLA-A*2902 (human).
T17 construct: Member of the panel of 53 single-specificity sHLA
Description: FP screen.

For test [19], the target named is T18, soluble HLA-B*4501 (human).
T18 construct: Member of the panel of 53 single-specificity sHLA
Description: FP screen.

Test [20] has as its target T19, soluble HLA-A*3601 (human).
T19 construct: Member of the panel of 53 single-specificity sHLA
The test is described as follows: FP screen.

In test [21] the target is T20, soluble HLA-B*1501 (human).
T20 construct: Member of the panel of 53 single-specificity sHLA
The test is described as follows: FP screen of 53 sHLA with FITC-peptide.

Test [22] concerns the target T21, soluble HLA-B*1801 (human).
T21 construct: Member of the panel of 53 single-specificity sHLA
Description: FP screen of 53 sHLA with FITC-peptide.

In test [23] the target is T20, soluble HLA-B*1501. The test is described as follows: FP screen of 53 sHLA with FITC-peptide. The source holds these as a separate data set.
Test [24] concerns the target T5, soluble HLA-A*2301. The test is described as follows: FP screen of 53 sHLA with FITC-peptide.
The target of test [25] is T7, soluble HLA-A*2402. The test is described as follows: FP screen of 53 sHLA with FITC-peptide.
In test [26] the target is T8, soluble HLA-A*6601. Description: FP screen of 53 sHLA with FITC-peptide.
Test [27] concerns the target T17, soluble HLA-A*2902. The test is described as follows: FP screen of 53 sHLA with FITC-peptide.
For test [28], the target named is T18, soluble HLA-B*4501. The test is described as follows: FP screen of 53 sHLA with FITC-peptide.
Test [29] deals with T1, soluble HLA-B*4001. Description: FP screen.
The target of test [30] is T2, soluble HLA-B*2705 (sHLA-B*2705). Description: FP screen. The source holds these as a separate data set.
The target in test [31] is T3, soluble HLA-B*4402. The test is described as follows: FP screen. This is another data set of the same source.
In test [32] the target is T4, soluble HLA-A*6801 (sHLA-A*6801). The test is described as follows: FP screen. The source holds these as a separate data set.
The target in test [33] is T6, soluble HLA-B*1512. The test is described as follows: FP screen. The source holds these as a separate data set.
In test [34] the target is T22, soluble HLA-B*4002 (human).
T22 construct: Member of the panel of 53 single-specificity sHLA
Description: FP screen.

The target of the next test is T23, soluble HLA-A*0101 (human).
T23 construct: Member of the panel of 53 single-specificity sHLA
The test is described as follows: FP screen.

Test [35] deals with T9, soluble HLA-A*3002. The test is described as follows: FP screen. The source holds these as a separate data set.
Test [36] concerns the target T10, soluble HLA-A*2601. Description: FP screen. This is another data set of the same source.
Test [37] has as its target T11, soluble HLA-A*1102 (sHLA-A*1102). The test is described as follows: FP screen. The source holds these as a separate data set.
Test [38] deals with T12, soluble HLA-A*3402. Description: FP screen. This is another data set of the same source.
For test [39], the target named is T13, soluble HLA-A*4301 (sHLA-A*4301). The test is described as follows: FP screen. The source holds these as a separate data set.
Test [40] deals with T14, soluble HLA-A*0301. Description: FP screen. The source holds these as a separate data set.
Test [41] has as its target T15, soluble HLA-A*6901 (sHLA-A*6901). The test is described as follows: FP screen. This is another data set of the same source.
For test [42], the target named is T16, soluble HLA-B*1302. Description: FP screen. The source holds these as a separate data set.
Test [43] concerns the target soluble HLA-A*0201 (sHLA-A*0201) (human). Description: FP screen. The source holds these as a separate data set.
Test [44] addresses T21, soluble HLA-B*1801. Description: FP screen.
In test [45] the target is T19, soluble HLA-A*3601. Description: FP screen. The source holds these as a separate data set.
Test [46] deals with T3, soluble HLA-B*4402. Description: FP screen of 53 sHLA.
The target in test [47] is T1, soluble HLA-B*4001. The test is described as follows: FP screen of 53 sHLA with FITC-peptide.
Test [48] concerns the target T22, soluble HLA-B*4002. Description: FP screen of 53 sHLA with FITC-peptide.

Read-outs that look alike come from different tables or passages of the source. Ends that are not written are not given here.

On to EEKLIVKQY (also: FITC-labeled, position not given here) [EEKLIVKQY, FITC-labeled B44-like peptide], for which the binding result in the test with soluble HLA-B*4001 [1] is listed as “binds”; in test [2], “no binding (tested: 100 ug/ml sHLA)”; with soluble HLA-B*4402 [3], “no binding (tested: 100 ug/ml sHLA)”; in test [4], “no binding (tested: 100 ug/ml sHLA)”; in the test with soluble HLA-A*2301 [5], “no binding (tested: 100 ug/ml sHLA)”; with soluble HLA-B*1512 [6] it was “no binding (tested: 100 ug/ml sHLA)”. Moreover, the binding result (in the test with soluble HLA-A*2402 [7]; with soluble HLA-A*6601 [8]; with soluble HLA-A*3002 [9]; with soluble HLA-A*2601 [10]; in test [11]; in the test with soluble HLA-A*3402 [12]) was “no binding (tested: 100 ug/ml sHLA)” each time. The binding result (in test [13]; in the test with soluble HLA-A*0301 [14]; in test [15]; with soluble HLA-B*1302 [16]; in [17]; with soluble HLA-A*2902 [18]) was “no binding (tested: 100 ug/ml sHLA)” throughout. Also, the binding result is given as “no binding (tested: 100 ug/ml sHLA)” in the test with soluble HLA-B*4501 [19], “no binding (tested: 100 ug/ml sHLA)” with soluble HLA-A*3601 [20], “binds” with soluble HLA-B*1501 [21] and “binds” with soluble HLA-B*1801 [22].
Regarding QYSWFKNGTF (not fully specified; also: FITC-labeled, position not given here) [QYSWFKNGTF, FITC-labeled A24-like peptide], the binding result in the test with soluble HLA-B*1501 [23], with soluble HLA-A*2301 [24], with soluble HLA-A*2402 [25], in the test with soluble HLA-A*6601 [26], with soluble HLA-A*2902 [27] and in the test with soluble HLA-B*4501 [28] was “binds” in each case. Further, the binding result (with soluble HLA-B*4001 [29]; in test [30]; with soluble HLA-B*4402 [31]; in test [32]; with soluble HLA-B*1512 [33]; with soluble HLA-B*4002 [34]) was “no binding (tested: 100 ug/ml sHLA)” throughout. The binding result (in the test with soluble HLA-A*0101; with soluble HLA-A*3002 [35]; with soluble HLA-A*2601 [36]; in [37]; in the test with soluble HLA-A*3402 [38]; in test [39]) was “no binding (tested: 100 ug/ml sHLA)” each time. The binding result (with soluble HLA-A*0301 [40]; in test [41]; with soluble HLA-B*1302 [42]; in test [43]; with soluble HLA-B*1801 [44]; in the test with soluble HLA-A*3601 [45]) was “no binding (tested: 100 ug/ml sHLA)” each time.
Regarding AELLAAKF (also: FITC-labeled, position not given here) [AELLAAKF, FITC-labeled B44-like peptide], the binding result with soluble HLA-B*4402 [46] is “no binding (tested: 2 nM peptide, 100 ug/ml activated sHLA)”; with soluble HLA-B*4001 [47], “binds”; with soluble HLA-B*4002 [48], “binds”; with soluble HLA-B*1801 [22], “binds”.
